Measurements taken from patent publication US11339209B2, “Compositions, methods, and therapeutic uses related to fusogenic protein minion” (NOVARTIS AG, priority 2016, dated 2022).

T1: Myomaker (Mus musculus, UniProt Q9D1N4)
T1 construct: endogenous in cells; host or cells: Differentiating muscle cells
T1 sequence (Q9D1N4 1-221): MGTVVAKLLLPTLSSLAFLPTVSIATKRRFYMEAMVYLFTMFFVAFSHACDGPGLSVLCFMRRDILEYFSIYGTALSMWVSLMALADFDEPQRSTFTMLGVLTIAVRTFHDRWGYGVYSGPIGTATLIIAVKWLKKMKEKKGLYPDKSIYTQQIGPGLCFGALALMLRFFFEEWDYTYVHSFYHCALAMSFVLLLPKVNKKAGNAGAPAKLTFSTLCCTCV

B1: human Minion: human ortholog of MINION, 84 codon ORF, expressed from retroviral cDNA, untagged or C-terminally epitope-tagged (protein, listed as Homo sapiens)
chain: MPTPLLPLLLRLLLSRLLLPAARLARQYLLPLLRRLARRLGSQDMREALLGCLLFILSQRHSPDAGEASRVDRLERRERLGPQK
B2: Myomaker: muscle-specific transmembrane protein; mouse tmem8c CDS expressed from retroviral vector (protein)
chain: T1 sequence (Q9D1N4 1-221)
B3: mouse MINION: 84 aa mouse microprotein inducer of fusion, expressed from retroviral cDNA, untagged or C-terminally 3×FLAG-1×HA-tagged (protein, listed as Mus musculus)
chain: MPVPLLPMVLRSLLSRLLLPVARLARQHLLPLLRRLARRLSSQDMREALLSCLLFVLSQQQPPDSGEASRVDHSQRKERLGPQK

How the values were obtained:
MINION^KD C2C12 cells = experiment: In vitro reconstitution (complementation) assay of the fusion defect in MINION^KD C2C12 cells; format: cell-based, mouse; details: retroviral cDNA expression, 5 days in differentiation medium, MHC immunofluorescence, MINION tested tagged and untagged
Protocol: For primary myoblasts derived from both embryos and adult mice, around 3000 cells in 50 μl myoblast growth medium (1:1 mixture of DMEM low glucose and Ham's F-10 Nutrient Mix; 20% (v/v) FBS; freshly added 2.5 ng/ml rhFGF) were seeded into each well of a 384-well Collagen-coated PerkinElmer CellCarrier™ plate (6007550) for imaging purposes. The next day, differentiation medium (DMEM high glucose (Gibco® 11995073) with 3% to 5% horse serum) was added to the cells (DM day 0). Differentiation medium was replaced daily. The cells were fixed at DM day 3 and day 4 for immunofluorescence staining. For C2C12 cells, ˜1500-2000 cells were seeded into each well of a 384-well plate (DMEM high glucose with 10% FBS) and around 2×10^5 cells were seeded into each well of a 6-well plate, using C2C12 growth medium (DMEM high glucose with 10% FBS). On the next day, differentiation medium (DMEM high glucose with 2% horse serum) was added to the cells (DM day 0), and differentiation medium was likewise replaced daily. […]
For the cloning of cDNA constructs, the coding sequences (CDS) of mouse MINION (for the 84 aa isoform), human MINION ortholog, mouse tmem8c (myomaker), nanoluc (control A), luciferase (control B), mouse MINION with 1 bp insertion, human MINION with 1 bp deletion, and mouse MINION truncation (39 aa form) were synthesized (IDT) with attB sites at both ends and a consensus Kozak sequence (5′ GCCACC (SEQ ID NO: 94)) before the start codon. […] After expression testing of the two 3F1H-tagged mouse and human MINION constructs, it was noticed that two bands were detected by Western blot with anti-FLAG antibody (FIG. 16). […]
To examine the knockdown efficiency of the mouse MINION transcript, shRNA-encoding lentiviruses were used to infect C2C12 cells. […] Based on an estimated viral titer of 1×10^8 vp/ml (as measured on 293T cells), a virus amount equivalent to MOI30 on 293T cells was used on C2C12 cells. […] Infection efficiency of 70-85% was routinely achieved as judged by FACS analysis, though GFP signal in undifferentiated C2C12 cells was barely discernable by EVOS fluorescence microscopy. […]

C2C12 myoblasts = experiment: Cell mixing of 10T1/2 fibroblasts with differentiating C2C12 myoblasts; format: cell-based, mouse; details: 10T1/2 fibroblasts mixed with wild-type C2C12 myoblasts (1:2), 3 days in differentiation medium
Excerpt: Differentiating myoblasts and myotubes are marked by MHC. 10T1/2 fibroblasts were infected with retrovirus expressing GFP and proteins of interest (left, NanoLuc control; middle, mouse Myomaker; right, mouse Minion). DAPI marks nuclei. […] White arrows indicate MHC-positive myotubes that are not fused to fibroblasts. n=2 (eight technical replicates each). 0.7 mm×0.7 mm fields are shown. […] 0.7 mm×0.7 mm fields at ×20 magnification are shown. Control and Minion^KD myoblasts were used. Differentiating myoblasts and myotubes are marked by MHC. 10T1/2 fibroblasts expressing Myomaker were labelled with CellTrace Violet dye before mixing. […]
(§1) Cell labeling was performed according to manufacturer's instructions with slight modifications. […] After the last wash, the cells were counted and diluted to the concentration needed for the final mixing experiment in a 384-well or 24-well plate, and were incubated at 37° C. for 30 min. […]
C3H 10T1/2 fibroblasts were infected with retroviruses encoding GFP and either control, Myomaker or Minion; GFP-positive fibroblasts were then mixed with wild-type C2C12 myoblasts and kept in differentiation medium for 3-4 days. Differentiating myoblasts and myotubes were marked by MHC expression, and fusion of GFP-positive fibroblasts to myotubes was readily detected when Myomaker, but not Minion or control, was expressed (FIG. 28A).

10T1/2 fibroblasts = experiment: Heterologous co-expression, syncytia formation between fibroblasts; format: cell-based; details: retroviral expression in 10T1/2 fibroblasts, growth medium
Protocol: In order to infect C2C12 cells and 10T1/2 cells, neat virus was incubated with 8 μg/ml polybrene at 37° C. for 10 min and then added to the cells, which were then incubated for 15 min at 37° C. One round of spin infection was performed using 24-well or 12-well plates at 1100 g for 1-1.5 hours and 32° C. After 4-6 hours, fresh neat virus with polybrene was added and a second round of spin infection was performed. Fresh medium was added to the infected cells to dilute the polybrene. […] Infection efficiency of this two-round infection method was generally >95% over a large range of viral concentrations, therefore FACS was not generally necessary. This strong GFP signal was used to mark the boundary of cells, in addition to phase contrast imaging and nuclear markers (FIGS. 22, 23A-23F); moreover, in cells that were fixed with 4% PFA but not permeabilized with detergents, the GFP signal was higher in the nuclear region, allowing unambiguous delineation of both the cell boundary and nuclei. […]
as §1

Myomaker = biological target: T1, Myomaker; experiment: Co-immunoprecipitation of Minion with Myomaker in differentiating muscle cells; format: binding; details: tagged and untagged Minion, endogenous and overexpressed Myomaker

Molecule | rescue of the cell fusion defect (MINION^KD C2C12 cells) | fusion of fibroblasts expressing the protein to wild-type differentiating myoblasts and myotubes (C2C12 myoblasts) | cell fusion between fibroblasts (multinuclear syncytia) (10T1/2 fibroblasts) | physical interaction with Myomaker (co-immunoprecipitation, western blot) (Myomaker)
B1 | strongly reconstituted cell fusion | – | – | –
B2 | incapable of rescuing the fusion defect | fused with wild-type differentiating myoblasts and myotubes | neither Myomaker nor Minion alone (FIG. 21D) was sufficient | –
B3 | robustly rescued fusion | failed to do so | neither Myomaker nor Minion alone (FIG. 21D) was sufficient | no detectable physical interaction
